B1: CCL3/MIP-1alpha (ligand, human, UniProt P10147 27-92, looked up)
chain: ADTPTACCFSYTSRQIPQNFIADYFETSSQCSKPGVIFLTKRSRQVCADPSEEWVQKYVSDLELSA
B2: HHV-6 U83A, native full length mature chemokine (ligand)
chain: FICSSPDAELFSEKSRMSSSVLLGCLLCCMDWSAAVPGKTEPFRKLFDAIMIKKLKSCSAAYPSDLEQGSMCDMADASPTSLELGLSKLDKES

Key:
[1] = biological target: T1, chemokine receptor CCR1 (human, UniProt P32246 1-355); test: cell-based or functional assay
T1 sequence (looked up): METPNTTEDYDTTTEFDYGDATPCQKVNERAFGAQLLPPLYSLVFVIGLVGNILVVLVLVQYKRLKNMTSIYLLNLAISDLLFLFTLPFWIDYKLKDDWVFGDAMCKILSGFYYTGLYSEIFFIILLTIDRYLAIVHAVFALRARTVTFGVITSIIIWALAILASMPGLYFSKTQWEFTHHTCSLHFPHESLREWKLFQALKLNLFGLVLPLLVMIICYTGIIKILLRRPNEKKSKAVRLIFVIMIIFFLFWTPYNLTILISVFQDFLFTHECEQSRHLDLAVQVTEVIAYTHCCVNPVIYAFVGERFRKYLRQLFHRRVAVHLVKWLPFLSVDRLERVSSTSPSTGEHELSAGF

[2] = biological target: human chemokine receptor CCR5 (human, UniProt P51681 1-352)
[3] = biological target: T2, chemokine receptor CCR6 (human, UniProt P51684 1-374); test: cell-based or functional assay
T2 sequence (looked up): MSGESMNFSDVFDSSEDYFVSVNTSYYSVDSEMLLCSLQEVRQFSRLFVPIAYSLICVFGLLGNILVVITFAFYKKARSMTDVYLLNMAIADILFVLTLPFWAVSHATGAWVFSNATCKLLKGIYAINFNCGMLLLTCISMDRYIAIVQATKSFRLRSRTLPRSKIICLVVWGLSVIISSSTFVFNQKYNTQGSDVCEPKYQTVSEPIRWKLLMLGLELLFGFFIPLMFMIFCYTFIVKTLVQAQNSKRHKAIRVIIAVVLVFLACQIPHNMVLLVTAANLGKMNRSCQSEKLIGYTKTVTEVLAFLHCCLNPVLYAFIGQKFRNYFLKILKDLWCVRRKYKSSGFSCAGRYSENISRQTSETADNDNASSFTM

[4] = biological target: chemokine receptor CCR8 (human, UniProt P51685 1-355); test: cell-based or functional assay
[5] = biological target: T3, chemokine receptor CCR4 (human, UniProt P51679 1-360); test: cell-based or functional assay
T3 sequence (looked up): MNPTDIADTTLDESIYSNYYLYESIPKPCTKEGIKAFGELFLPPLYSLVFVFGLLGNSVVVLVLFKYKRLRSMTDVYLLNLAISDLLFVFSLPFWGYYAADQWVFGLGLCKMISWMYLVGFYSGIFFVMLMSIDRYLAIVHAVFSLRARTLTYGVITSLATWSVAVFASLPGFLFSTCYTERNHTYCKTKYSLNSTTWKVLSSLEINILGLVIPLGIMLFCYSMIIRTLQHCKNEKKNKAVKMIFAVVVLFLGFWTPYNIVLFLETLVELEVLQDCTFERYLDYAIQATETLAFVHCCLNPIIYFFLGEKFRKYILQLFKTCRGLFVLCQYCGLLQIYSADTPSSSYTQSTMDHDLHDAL

human chemokine receptor CCR5, sequence (P51681 whole entry): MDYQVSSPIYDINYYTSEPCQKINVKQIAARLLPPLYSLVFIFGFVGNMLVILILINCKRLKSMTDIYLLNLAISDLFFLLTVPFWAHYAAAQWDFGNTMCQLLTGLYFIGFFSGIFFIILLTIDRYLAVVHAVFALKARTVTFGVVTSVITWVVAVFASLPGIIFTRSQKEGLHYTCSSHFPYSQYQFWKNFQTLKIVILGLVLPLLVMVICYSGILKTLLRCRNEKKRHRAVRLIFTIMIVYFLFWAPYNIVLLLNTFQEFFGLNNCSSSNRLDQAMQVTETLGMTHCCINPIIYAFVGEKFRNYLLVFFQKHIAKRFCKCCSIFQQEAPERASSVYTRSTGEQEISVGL

| Binder | EC50, calcium mobilisation in CCR1-CHO cells [1] | IC50 [2] | calcium mobilisation at 10 nM U83A, percent of the response to endogenous ligand [1] | minimal effective dose, calcium mobilisation [1] | EC50, calcium mobilisation in CCR6-CHO cells [3] | calcium mobilisation at 10 nM U83A, percent of the response to endogenous ligand [3] | calcium mobilisation at 100 nM U83A, percent of the response to endogenous ligand [3] | minimal effective dose, calcium mobilisation [3] | EC50, calcium mobilisation in CCR8-CHO cells [4] | calcium mobilisation at 10 nM U83A, percent of the response to endogenous ligand [4] | calcium mobilisation at 100 nM U83A, percent of the response to endogenous ligand [4] | EC50, calcium mobilisation in CCR4-CHO cells [5] | calcium mobilisation at 10 nM U83A, percent of the response to endogenous ligand [5] | calcium mobilisation at 100 nM U83A, percent of the response to endogenous ligand [5] | minimal effective dose, calcium mobilisation [5] |
| --- | --- | --- | --- | --- | --- | --- | --- | --- | --- | --- | --- | --- | --- | --- | --- |
| B1 | 2.75 nM |  |  |  |  |  |  |  |  |  |  |  |  |  |  |
| B2 | 9.17 nM | 0.11 nM | 60% | 7.5 nM | 10.3 nM | 35% | 80% | 7.5 nM | 6.42 nM | 65% | 85% | 8.96 nM | 50% | 84% | 7.5 nM |

Source: patent US20110098212A1 (LONDON SCHOOL OF HYGIENE AND TROPICAL MEDICINE, published 2011)
